Experimental data reported in patent publication EP4763858A1 (dated 2026).

Molecular target: T1, LMP1 (Epstein-Barr virus) peptide on HLA-A*02:01 (human)
T1 peptide: YLLEMLWRL
Assay: multimer staining

Binder | binding result
T cell receptor LMP1-TCR2 (TCR, V domains shown) Valpha: AQKITQTQPGMFVQEKEAVTLDCTYDTSDPSYGLFWYKQPSSGEMIFLIYQGSYDQQNATEGRYSLNFQKARKSANLVISASQLGDSAMYFCAMREVALNAGGTSYGKLTFGQGTILTVHP Vbeta: GAVVSQHPSWVICKSGTSVKIECRSLDFQATTMFWYRQFPKQSLMLMATSNEGSKATYEQGVEKDKFLINHASLTLSTLTVTSAHPEDSSFYICSASGAQPDDPQHFGDGTRLSIL | recognises
T cell receptor LMP1-TCR1 (TCR, V domains shown) Valpha: AQSVSQHNHHVILSEAASLELGCNYSYGGTVNLFWYVQYPGQHLQLLLKYFSGDPLVKGIKGFEAEFIKSKFSFNLRKPSVQWSDTAEYFCALPRWDGGYNKLIFGAGTRLAVHP Vbeta: DTEVTQTPKHLVMGMTNKKSLKCEQHMGHRAMYWYKQKAKKPPELMFVYSYEKLSINESVPSRFSPECPNSSLLNLHLHALQPEDSALYLCASSQEGTGELFFGEGSRLTVL | recognises
